According to the supplement of paper PMC12667976:

B1: library; numbered along this chain (parent)
chain: MATDAALRRLLRLHRTEIAVAVDSAFPLLHALADHDVVPEDKFQETLHLKEKEGCPQAFHALLSWLLTQDSTAILDFWRVLFKDYNLERYGRLQPILDSFPKDVDLSQPRKGRKPPAVPKALVPPPRLPTKRKASEEARAAAPAALTPRGTASPGSQLKAKPPKKPESSAEQQRLPLGNGIQTMSASVQRAVAMSSGDVPGARGAVEGILIQQVFESGGSKKCIQVGGEFYTPSKFEDSGSGKNKARSSSGPKPLVRAKGAQGAAPGGGEARLGQQGSVPAPLALPSDPQLHQKNEDECAVCRDGGELICCDGCPRAFHLACLSPPLREIPSGTWRCSSCLQATVQEVQPRAEEPRPQEPPVETPLPPGLRSAGEEVRGPPGEPLAGMDTTLVYKHLPAPPSAAPLPGLDSSALHPLLCVGPEGQQNLAPGARCGVCGDGTDVLRCTHCAAAFHWRCHFPAGTSRPGTGLRCRSCSGDVTPAPVEGVLAPSPARLAPGPAKDDTASHEPALHRDDLESLLSEHTFDGILQWAIQSMARPAAPFPS

Variants of: B1
Test: AIRE transcriptional activation functional score (insulin promoter-GFP; nonsense median 0, synonymous median 1) (normalised score); higher = higher AIRE activity (more reporter activation)
Settings: with insulin promoter-GFP reporter in HEK293
Method: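 Deep mutational scan of full-length human AIRE (codon-optimized cDNA, DT-POPCode NNN libraries over three regions) integrated at a Bxb1 landing pad in HEK293 cells carrying an insulin core promoter-GFP reporter at a Flp-In site. Cells were sorted for the top 10% GFP about 14 days after transfection. Variant frequency log-ratios (select vs non-select, TileSeq) were rescaled so that the nonsense median is 0 and the synonymous median is 1, then averaged over biological replicates.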

AIRE transcriptional activation functional score, by site and new letter:
I74: W 0.39, E -0.548, N -0.347, T -0.246, Q 0.136, L 0.0101, A 0.186, C 0.295, G 0.496, R -0.00714, Y 0.19, M 0.0325, K 0.384, V 0.51, F -0.0221, S -0.0735, H 0.604, D 0.058, P 0.409
L63: G 0.772, K -0.721, C -0.0612, E -1.39, P 0.339, N 0.0814, S -0.272, V 0.617, W 0.381, A 0.181, R -0.0432, I 0.588, T -0.37, D -0.402, F 0.298, M -0.458, Q -0.326, H -0.128, Y -0.421
Q69: I -0.279, M -0.732, E 0.0374, W -0.383, V -0.0416, N -0.248, F -0.0774, K 0.102, G 0.383, S -0.2, R 1.15, L -0.119, H -0.135, D 0.261, C 0.105, T -0.236, Y 0.498, P 0.118, A 0.0258
L66: K -0.126, S -0.186, T -0.0651, F -0.101, G -0.202, W 0.0325, A 0.62, P 0.349, M 0.0543, Y 0.687, V 0.121, C -0.733, D -0.102, H 0.316, R -0.171, N -0.299, I 0.885, Q 0.233, E -0.037
F77: G -0.0629, E 0.445, H 0.528, L -0.0762, A 0.257, C 0.198, I 0.0486, K 0.21, N -0.429, M 0.136, D -0.0172
S64: A -0.0317, L -0.114, G 0.447, C -0.513, I -0.0655, P 0.795, T 0.485, N 0.278, V -0.0585, D -0.252, E -0.72, Y 0.513, R -0.473, W 0.42, F 0.0385, M -0.0813, Q -0.939, K -0.37, H 0.583
F59: V 0.903, R -0.191, T 0.102, W 0.208, S 0.2, N -0.0761, Q -1.19, Y -0.0924, P 0.0711
T72: N 1.15, W 0.0941, K 1.59, I 0.104, G 0.0759, C 0.562, V 1.28, Y 0.224, F 0.964, D 2.22, A 1.01, S 0.667, P 0.606, H 1.39, R 0.0611, L 0.84
L62: F -0.766, M 0.558, T -0.152, H -0.594, N 0.232, W 0.305, E -0.679, Q 0.0502, D -0.0278, I -0.601, S 0.0796, R -0.00966, P -0.295, V 0.0204, C 0.584, G -0.253, Y 0.0998, A -0.0777, K -0.404
D70: E 0.94, C 0.296, V -0.0452, P -0.549, M -0.516, N 0.992, L -0.362, Q 0.436, H -0.0845, F -0.152, R 0.35, K 2.05, T 0.428, W -0.512, I 0.395, G 0.895, S 2.47, A -0.203, Y -0.642
H60: E -0.56, W 0.431, V -0.0783, L -0.135, K -0.424, R 0.0862, D -0.0281, A -0.135, G 0.0323, N 0.179, S -0.00297, C -0.27, M 0.414, F 1.06, I 0.216, Q 0.338, T 0.117, P -0.793, Y 0.332
S71: W -0.0187, M 0.472, N 0.235, C 0.858, E 1.17, V 0.229, G 0.809, Y 1.52, Q 2.02, T 1.05, R 0.321, D 1.61, H 1.32, F 0.353, I 0.605, L -0.359, K 1.2, A 1.08, P -0.532
L67: E -0.592, S -0.0517, H 0.742, Q -0.874, V 0.638, Y 0.237, P -0.378, R -0.769, K 0.25, G -0.0868, D 0.698, I 0.391, F -0.0388, A 0.0875, T -0.29, W 0.0659, M 0.554, N 0.265, C -0.405
A61: Q 0.472, H 1.26, W 1.46, D 0.176, C -0.153, Y -0.0286, V 0.328, F 0.26, M 0.552, S 1.48, L -0.166, T 0.573, G 0.214, E 0.619, I -0.471, R 0.646, P -0.68, N 0.59
L75: C 0.732, R 0.518, H 0.935, P -0.233, F 0.688, Y 1.52, V 1.31, K 0.732, A 0.288, E -0.603, T 1.46, W 2.01, G 0.82, Q 0.0287, I 1.13, N 1.01, D -0.0941, M 0.71, S 0.842
D76: A 0.43, L 0.535, V 0.795, H 0.235, E 0.132, I 0.22, W 0.516, M 2.3, G -0.331, R 0.463, S 0.371, C 0.409, N -0.077, Y 0.302, F -0.202, T 0.0165
W65: Y -0.365, L 0.2, H 0.542, K 0.535, P -0.233, N 0.316, G 0.22, T 1.03, S 0.269, A -0.93, C 0.469, I -0.311, F 0.122, Q -0.357, D -1.55, M -0.0554, V -0.0047, E 0.0731, R -0.313
A73: F 0.15, Y 0.555, P 0.676, S 0.179, V 1.1, H 2.12, T 1.01, I 1.33, C 0.629, E 0.775, W -0.767, D -0.0868, R 1.26, Q -1.02, L 0.61, N -0.949, G -0.592
T68: M 0.985, A 0.312, P 0.108, Q -1.24, R 0.304, H 0.424, I -0.358, V 0.624, D -0.277, C 0.77, W -0.374, L 0.729, S 0.804, K 0.868, E -2.1, F -0.0989, N 0.581, Y 0.495, G 0.848
